Reference: patent US20050276811A1

Columns and labels:
IgM^CM-22 [1] = assay: SPR (BiaCore), IgM^CM-22 amine-coupled to CM5 chip, N2 injected at 10.5-120 µM, steady-state fit with 1:1 Langmuir isotherm
IgM^CM-22 [2] = assay: cell-based or functional assay
IgM^CM-22 [3] = assay: competition ELISA: synthetic P8 peptide titrated against phage P8 binding to IgM^CM-22-coated plate

Binder	Kd (IgM^CM-22 [1]) [µM]	mean pathology score, intestinal RI in RAG-1-/- mice given IgM^CM-22 mixed with N2 versus IgM^CM-22 and saline (pathology score) (IgM^CM-22 [2])	concentration of P8 sufficient to block IgM^CM-22 (IgM^CM-22 [2]) [µM]	mean pathology score, intestinal RI in RAG-1-/- mice given IgM^CM-22 mixed with P8 versus IgM^CM-22 alone (pathology score) (IgM^CM-22 [2])	IC50 (IgM^CM-22 [3]) [µM]
LMKNMDPLNDNV [self-peptide N2]	123	13			
NGNNVNGNRNNN [synthetic peptide P8]			10	6	10
